Test results as given in paper PMC12133298.

Tested on: Rho Y80C (Escherichia coli)
Assay: EMSA
Conditions: 37 C, 1 mM ATP, 25 mM Tris-Cl pH 8.0, 50 mM KCl, 5 mM MgCl2, 1 mM DTT, 37 C (or 4 C), 15 min, 0.8% agarose 0.5x TBE, 5 nM DNA

Substance | Kd (5 mM Mg2+) | binding signal (fold weaker than WT)
3.5 kb linear dsDNA | 180 nM | 
pBR322 |  | 7
